Source: the supplement of paper PMC10065799, “High-throughput profiling of sequence recognition by tyrosine kinases and SH2 domains using bacterial peptide display” (eLife, 2023)

Tests used:
AncSZ = test: phosphorylation enrichment, bacterial display (enrichment ratio); higher = better substrate or ligand; peptides without Tyr show the background
EPHB1 = EPHB1 (UniProt P54762); test: as above
EPHB2 = EPHB2 (UniProt P29323); test: as above
FGFR1 = FGFR1 (UniProt P11362); test: as above
FGFR3 = FGFR3 (UniProt P22607); test: as above
Fer (mouse) = test: as above
Fes = Fes (UniProt P07332); test: as above
Fyn = Fyn (UniProt P06241); test: as above
Hck = Hck (UniProt P08631); test: as above
Jak2 = Jak2 (UniProt O60674); test: as above
MERTK = MERTK (UniProt Q12866); test: as above
c-Abl (mouse) = test: as above
c-Src = test: as above
Grb2 SH2 = Grb2 SH2 (UniProt P62993); test: SH2 binding enrichment of the phosphorylated peptide, bacterial display (enrichment ratio); higher = better substrate or ligand; peptides without Tyr show the background
SHP2-C SH2 = test: as above
c-Src SH2 = test: as above
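Throughout, for SH2 binding enrichment of the phosphorylated peptide, bacterial display: peptide library displayed on the E. coli surface as eCPX fusions, selected cells deep-sequenced, score is each peptide's frequency after selection divided by its frequency in the input.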
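Throughout, for phosphorylation enrichment, bacterial display: 11-residue human phosphosite peptides and single-mutation variants displayed on the E. coli surface, counted by deep sequencing, each peptide's frequency after selection divided by its frequency in the unselected input library; frequency after pTyr selection over input frequency; kinase dosed for 20-30% of maximal phosphorylation in three min.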

Sequence of EPHB1 (P54762 whole entry, looked up): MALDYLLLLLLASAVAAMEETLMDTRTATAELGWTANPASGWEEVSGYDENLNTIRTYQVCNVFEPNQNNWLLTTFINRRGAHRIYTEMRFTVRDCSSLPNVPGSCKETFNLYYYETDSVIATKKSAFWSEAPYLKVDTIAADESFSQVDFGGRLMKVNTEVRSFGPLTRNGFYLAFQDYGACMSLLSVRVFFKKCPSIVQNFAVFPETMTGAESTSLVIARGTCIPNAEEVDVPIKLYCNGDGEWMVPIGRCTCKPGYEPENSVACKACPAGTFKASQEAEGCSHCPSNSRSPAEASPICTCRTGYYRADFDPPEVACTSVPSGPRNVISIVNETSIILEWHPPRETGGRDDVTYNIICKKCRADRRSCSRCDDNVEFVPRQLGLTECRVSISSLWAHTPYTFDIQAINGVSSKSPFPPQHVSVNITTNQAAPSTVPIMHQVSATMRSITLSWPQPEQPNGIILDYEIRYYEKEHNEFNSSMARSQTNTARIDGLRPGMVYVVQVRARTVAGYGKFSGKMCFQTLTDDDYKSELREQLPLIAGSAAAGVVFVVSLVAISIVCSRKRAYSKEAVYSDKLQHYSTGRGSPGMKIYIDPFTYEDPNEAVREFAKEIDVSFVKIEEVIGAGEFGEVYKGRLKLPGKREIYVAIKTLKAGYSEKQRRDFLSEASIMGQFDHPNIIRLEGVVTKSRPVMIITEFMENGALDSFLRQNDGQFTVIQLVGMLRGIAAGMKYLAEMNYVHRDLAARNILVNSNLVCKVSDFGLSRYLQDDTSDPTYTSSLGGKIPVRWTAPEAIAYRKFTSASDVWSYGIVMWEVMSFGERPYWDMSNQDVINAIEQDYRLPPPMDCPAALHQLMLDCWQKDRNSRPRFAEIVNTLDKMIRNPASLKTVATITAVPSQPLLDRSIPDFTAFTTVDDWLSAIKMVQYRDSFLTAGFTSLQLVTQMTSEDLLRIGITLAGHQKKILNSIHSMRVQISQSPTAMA
Sequence of FGFR1 (P11362 whole entry, looked up): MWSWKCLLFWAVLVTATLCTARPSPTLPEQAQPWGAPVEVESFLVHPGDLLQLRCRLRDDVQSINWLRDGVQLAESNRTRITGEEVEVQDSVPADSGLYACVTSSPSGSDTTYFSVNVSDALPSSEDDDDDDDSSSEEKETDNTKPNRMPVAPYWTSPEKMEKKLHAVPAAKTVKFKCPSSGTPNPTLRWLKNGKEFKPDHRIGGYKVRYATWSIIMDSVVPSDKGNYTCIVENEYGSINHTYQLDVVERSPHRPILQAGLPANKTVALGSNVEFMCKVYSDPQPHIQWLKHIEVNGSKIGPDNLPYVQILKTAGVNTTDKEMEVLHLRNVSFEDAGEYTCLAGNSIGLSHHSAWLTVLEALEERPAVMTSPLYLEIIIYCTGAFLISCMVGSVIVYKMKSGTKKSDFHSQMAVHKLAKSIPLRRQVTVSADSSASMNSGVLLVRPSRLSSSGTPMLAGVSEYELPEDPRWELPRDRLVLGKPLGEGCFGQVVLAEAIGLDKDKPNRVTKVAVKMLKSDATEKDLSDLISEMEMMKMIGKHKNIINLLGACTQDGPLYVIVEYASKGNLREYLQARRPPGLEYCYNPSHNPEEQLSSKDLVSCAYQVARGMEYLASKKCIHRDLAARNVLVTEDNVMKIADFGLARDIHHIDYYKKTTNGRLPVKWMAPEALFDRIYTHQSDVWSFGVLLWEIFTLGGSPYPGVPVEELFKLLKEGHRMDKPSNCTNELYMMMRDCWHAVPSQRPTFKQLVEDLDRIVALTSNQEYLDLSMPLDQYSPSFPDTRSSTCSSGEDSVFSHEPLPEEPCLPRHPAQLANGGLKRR
Sequence of FGFR3 (P22607 whole entry, looked up): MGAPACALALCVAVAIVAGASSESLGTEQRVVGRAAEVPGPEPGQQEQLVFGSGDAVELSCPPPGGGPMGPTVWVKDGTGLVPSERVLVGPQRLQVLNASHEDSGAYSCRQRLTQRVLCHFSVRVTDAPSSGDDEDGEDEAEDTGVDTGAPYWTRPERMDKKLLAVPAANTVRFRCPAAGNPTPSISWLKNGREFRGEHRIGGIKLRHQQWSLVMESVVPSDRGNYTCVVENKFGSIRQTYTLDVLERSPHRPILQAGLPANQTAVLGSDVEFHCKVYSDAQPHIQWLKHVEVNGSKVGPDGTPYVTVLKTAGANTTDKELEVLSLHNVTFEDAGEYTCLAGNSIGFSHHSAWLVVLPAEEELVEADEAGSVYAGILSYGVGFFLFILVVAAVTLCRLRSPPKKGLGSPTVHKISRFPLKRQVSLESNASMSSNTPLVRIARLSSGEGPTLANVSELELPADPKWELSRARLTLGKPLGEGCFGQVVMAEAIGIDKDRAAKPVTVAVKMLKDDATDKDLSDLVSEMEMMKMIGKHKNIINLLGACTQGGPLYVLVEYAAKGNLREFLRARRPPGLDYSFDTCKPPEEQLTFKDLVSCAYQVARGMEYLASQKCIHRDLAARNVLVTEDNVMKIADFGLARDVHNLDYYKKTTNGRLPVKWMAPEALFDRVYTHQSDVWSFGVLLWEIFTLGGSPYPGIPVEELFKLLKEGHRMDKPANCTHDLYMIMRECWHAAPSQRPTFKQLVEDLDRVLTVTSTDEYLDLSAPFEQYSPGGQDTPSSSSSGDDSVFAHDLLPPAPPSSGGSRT
Sequence of Jak2 (O60674 whole entry, looked up): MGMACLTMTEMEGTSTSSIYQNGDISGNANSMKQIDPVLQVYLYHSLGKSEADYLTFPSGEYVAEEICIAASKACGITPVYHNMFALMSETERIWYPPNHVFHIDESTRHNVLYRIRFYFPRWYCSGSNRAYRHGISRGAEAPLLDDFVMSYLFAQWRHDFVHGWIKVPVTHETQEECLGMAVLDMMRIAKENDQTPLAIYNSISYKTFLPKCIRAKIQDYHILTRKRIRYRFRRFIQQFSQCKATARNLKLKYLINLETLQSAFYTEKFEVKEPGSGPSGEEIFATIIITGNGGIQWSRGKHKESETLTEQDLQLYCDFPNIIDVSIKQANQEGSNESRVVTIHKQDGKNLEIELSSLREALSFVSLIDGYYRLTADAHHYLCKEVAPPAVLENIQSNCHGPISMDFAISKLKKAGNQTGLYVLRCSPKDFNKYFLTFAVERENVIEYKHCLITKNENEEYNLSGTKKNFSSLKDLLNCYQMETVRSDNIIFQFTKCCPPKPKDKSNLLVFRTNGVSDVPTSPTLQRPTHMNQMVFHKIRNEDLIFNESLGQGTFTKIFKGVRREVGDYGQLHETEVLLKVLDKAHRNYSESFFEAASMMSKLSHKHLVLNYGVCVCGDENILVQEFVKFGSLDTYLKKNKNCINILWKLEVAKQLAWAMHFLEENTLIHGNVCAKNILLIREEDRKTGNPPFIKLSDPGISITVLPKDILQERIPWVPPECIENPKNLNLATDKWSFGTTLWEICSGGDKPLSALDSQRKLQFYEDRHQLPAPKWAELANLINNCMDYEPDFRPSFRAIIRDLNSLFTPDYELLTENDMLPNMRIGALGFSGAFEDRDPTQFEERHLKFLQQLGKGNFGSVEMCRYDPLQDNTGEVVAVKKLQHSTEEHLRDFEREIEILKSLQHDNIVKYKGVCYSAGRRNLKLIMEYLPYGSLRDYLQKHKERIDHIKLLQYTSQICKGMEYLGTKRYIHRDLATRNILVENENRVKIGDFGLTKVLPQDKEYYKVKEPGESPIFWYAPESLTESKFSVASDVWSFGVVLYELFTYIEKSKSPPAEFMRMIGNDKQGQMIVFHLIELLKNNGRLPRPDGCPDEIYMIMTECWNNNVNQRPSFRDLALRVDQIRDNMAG
Sequence of EPHB2 (P29323 whole entry, looked up): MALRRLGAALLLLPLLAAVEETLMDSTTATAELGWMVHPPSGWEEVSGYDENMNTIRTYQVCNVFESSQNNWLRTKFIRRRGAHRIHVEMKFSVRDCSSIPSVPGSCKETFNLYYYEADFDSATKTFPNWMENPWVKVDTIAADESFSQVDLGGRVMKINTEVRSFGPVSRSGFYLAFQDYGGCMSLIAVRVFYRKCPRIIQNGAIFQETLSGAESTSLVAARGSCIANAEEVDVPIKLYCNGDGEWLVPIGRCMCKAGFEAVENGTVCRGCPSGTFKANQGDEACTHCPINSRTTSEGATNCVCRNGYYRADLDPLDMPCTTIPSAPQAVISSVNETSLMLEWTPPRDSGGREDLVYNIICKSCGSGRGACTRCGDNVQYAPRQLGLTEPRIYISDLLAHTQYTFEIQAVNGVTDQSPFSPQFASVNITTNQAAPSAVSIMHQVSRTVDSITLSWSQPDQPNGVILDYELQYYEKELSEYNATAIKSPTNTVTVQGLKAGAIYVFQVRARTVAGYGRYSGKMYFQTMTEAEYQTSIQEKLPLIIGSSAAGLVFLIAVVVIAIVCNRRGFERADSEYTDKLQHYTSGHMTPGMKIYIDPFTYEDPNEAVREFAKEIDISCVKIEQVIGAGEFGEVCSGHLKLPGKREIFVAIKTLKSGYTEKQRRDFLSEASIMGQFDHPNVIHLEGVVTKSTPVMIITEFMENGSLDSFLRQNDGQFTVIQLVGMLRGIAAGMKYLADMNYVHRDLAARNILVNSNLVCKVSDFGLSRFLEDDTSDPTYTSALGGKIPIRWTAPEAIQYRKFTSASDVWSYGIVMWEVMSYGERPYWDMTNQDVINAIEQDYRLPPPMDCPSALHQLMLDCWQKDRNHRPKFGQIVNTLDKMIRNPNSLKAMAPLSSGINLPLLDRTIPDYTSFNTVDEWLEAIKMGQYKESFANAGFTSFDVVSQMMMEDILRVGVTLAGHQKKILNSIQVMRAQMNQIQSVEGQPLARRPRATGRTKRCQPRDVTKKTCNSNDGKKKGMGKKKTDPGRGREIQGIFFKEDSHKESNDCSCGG

| SH2 binding enrichment (Grb2 SH2) | SH2 binding enrichment (SHP2-C SH2) | SH2 binding enrichment (c-Src SH2) | Sequence | phosphorylation enrichment (AncSZ) | phosphorylation enrichment (EPHB1) | phosphorylation enrichment (EPHB2) | phosphorylation enrichment (FGFR1) | phosphorylation enrichment (FGFR3) | phosphorylation enrichment (Fer (mouse)) | phosphorylation enrichment (Fes) | phosphorylation enrichment (Fyn) | phosphorylation enrichment (Hck) | phosphorylation enrichment (Jak2) | phosphorylation enrichment (MERTK) | phosphorylation enrichment (c-Abl (mouse)) | phosphorylation enrichment (c-Src) |
| --- | --- | --- | --- | --- | --- | --- | --- | --- | --- | --- | --- | --- | --- | --- | --- | --- |
| 1.23 | 1.23 | 0.934 | RAFSWYQHQRA [NDST1_Y714_YF] | 1.54 | 0.74 | 0.855 | 0.763 | 1 | 0.794 | 1.72 | 0.769 | 0.611 | 1.25 | 0.424 | 1.09 | 0.489 |
| 1.57 | 1.5 | 0.972 | RAVLLYEFVGK [NATD1_Y45_YF] | 2.71 | 23.8 | 27.1 | 2.12 | 2.29 | 14.9 | 3.12 | 5.5 | 8.33 | 1.56 | 12.7 | 1.54 | 5.67 |
| 1.97 | 1.78 | 1.27 | RCFVFYFSFLL [PTEN_Y177_R173C_YF] | 0.59 | 0.353 | 0.434 | 0.506 | 0.613 | 0.432 | 0.626 | 0.355 | 0.426 | 0.821 | 0.38 | 0.732 | 0.591 |
| 1.64 | 1.54 | 1.6 | RDLTHYLMKIL [ACTG1_Y188_D187H] | 1.27 | 1.05 | 0.804 | 0.665 | 0.85 | 0.64 | 1.12 | 0.756 | 1.06 | 0.477 | 0.583 | 0.692 | 0.463 |
| 0.909 | 0.8 | 0.391 | RDMMDYMPQGV [CYP21A2_Y259_L261P] | 1.41 | 0.921 | 1.28 | 0.799 | 0.823 | 0.937 | 1.36 | 0.636 | 0.578 | 0.986 | 0.681 | 0.912 | 0.596 |
| 1.16 | 0.956 | 0.627 | REEKNYKLKET [BCLAF1_Y459] | 0.996 | 0.691 | 0.799 | 0.733 | 0.714 | 1.3 | 1.21 | 0.843 | 0.861 | 1.5 | 1.14 | 1.16 | 1.28 |
| 0.623 | 1.01 | 0.407 | REGDKYVSHGA [ASS1_Y113_A111D] | 0.938 | 0.794 | 0.622 | 0.731 | 0.58 | 0.486 | 1.03 | 0.505 | 0.61 | 0.83 | 0.744 | 0.873 | 0.643 |
| 1.19 | 0.951 | 1.01 | REIIAYQPFGK [PRKCG_Y529_P524R_YF] | 0.524 | 0.51 | 0.385 | 0.305 | 0.398 | 0.291 | 0.635 | 0.499 | 0.438 | 0.584 | 0.305 | 0.705 | 0.466 |
| 0.707 | 0.691 | 1.18 | RELGEYALAEY [ALDH1A3_Y492] | 1.44 | 0.858 | 0.785 | 0.694 | 0.714 | 0.74 | 2.76 | 0.614 | 0.765 | 1.81 | 0.55 | 1.67 | 1.14 |
| 0.745 | 0.749 | 0.451 | RELGEYGLQAY [ALDH2_Y497] | 1.55 | 0.699 | 0.754 | 0.676 | 0.977 | 0.949 | 1.61 | 0.822 | 0.824 | 1.32 | 0.562 | 0.962 | 0.696 |
| 0.822 | 1.13 | 0.705 | RENGPYYASYP [GDAP2_Y487_T489A] | 1.04 | 1.58 | 5.74 | 2.29 | 1.92 | 0.691 | 0.869 | 8.25 | 5.46 | 0.661 | 7.74 | 1.94 | 7.26 |
| 1.07 | 0.632 | 0.551 | REVPVYISEDS [SYNM_Y460_G462S] | 2.34 | 1.3 | 1.07 | 1.16 | 1.57 | 1.2 | 2.71 | 0.89 | 1.09 | 3.51 | 1.53 | 2.66 | 1.56 |
| 0.92 | 0.602 | 0.322 | RFLRGYRQYAY [HLA-A_Y137_D140Y] | 1.61 | 1.33 | 0.752 | 0.77 | 0.669 | 0.577 | 1.19 | 1.29 | 0.634 | 4.7 | 0.846 | 1.56 | 1.56 |
| 0.899 | 0.828 | 0.578 | RGFDTYFGFLL [ARSB_Y165_YF] | 1.68 | 4.25 | 4.31 | 3.4 | 3.25 | 4.06 | 1.53 | 8.78 | 6.53 | 4.64 | 5.24 | 1.14 | 6.93 |
| 0.944 | 1.49 | 0.646 | RGSQQYRALPV [TUBB8_Y281_T285P] | 0.618 | 0.533 | 0.563 | 0.803 | 0.546 | 0.434 | 0.686 | 0.655 | 0.388 | 0.789 | 0.525 | 0.694 | 0.588 |
| 0.534 | 0.687 | 0.41 | RGYRVCYTPDS [PTPRF_Y450_Y450C] | 1.32 | 0.892 | 0.909 | 0.784 | 1.36 | 0.71 | 1.61 | 0.602 | 0.618 | 1.86 | 0.634 | 1.16 | 0.985 |
